# Measurements as given in patent US20150141617A1, “PRODUCTION AND PURIFICATION OF ACTIVE EUKARYOTIC FORMYLGLYCINEGENERATING ENZYME (FGE) VARIANTS” (Universität Bielefeld, priority 2013, published 2015).
# The star is where a group is joined. Decanoyl = CCCCCCCCCC(=O)*; CH2Cl = ClC*
# B1: FGE-HA (human formylglycine generating enzyme, wild type, C-terminal HA tag, expressed from pBI-FGE-HA in mammalian cells) (enzyme, UniProt Q8NBK3 34-374, looked up, not shown: small tags and cut ends)
# chain: SQEAGTGAGAGSLAGSCGCGTPQRPGAHGSSAAAHRYSREANAPGPVPGERQLAHSKMVPIPAGVFTMGTDDPQIKQDGEAPARRVTIDAFYMDAYEVSNTEFEKFVNSTGYLTEAEKFGDSFVFEGMLSEQVKTNIQQAVAAAPWWLPVKGANWRHPEGPDSTILHRPDHPVLHVSWNDAVAYCTWAGKRLPTEAEWEYSCRGGLHNRLFPWGNKLQPKGQHYANIWQGEFPVTNTGEDGFQGTAPVDAFPPNGYGLYNIVGNAWEWTSDWWTVHHSVEETLNPKGPPSGKDRVKKGGSYMCHRSYCYRYRCAARSQNTPDSSASNLGFRCAADRLPTMD
# B2: fl-FGE-R69A/R72A (SEQ ID NO: 4), produced in High Five insect cells (enzyme)
# chain: ADEFSQEAGTGAGAGSLAGSCGCGTPQRPGAHGSSAAAHAYSAEANAPGPVPGERQLAHSKMVPIPAGVFTMGTDDPQIKQDGEAPARRVTIDAFYMDAYEVSNTEFEKFVNSTGYLTEAEKFGDSFVFEGMLSEQVKTNIQQAVAAAPWWLPVKGANWRHPEGPDSTILHRPDHPVLHVSWNDAVAYCTWAGKRLPTEAEWEYSCRGGLHNRLFPWGNKLQPKGQHYANIWQGEFPVTNTGEDGFQGTAPVDAFPPNGYGLYNIVGNAWEWTSDWWTVHHSVEETLNPKGPPSGKDRVKKGGSYMCHRSYCYRYRCAARSQNTPDSSASNLGFRCAADRLPTMDSGRGSHHHHHHH
# notes: It has four extra N-terminal residues (ADEF), human FGE from S34 with R69A and R72A, and a C-terminal SGRGS-His7; After size exclusion it occurs as a monomer and as a disulfide-bridged dimer; also called Baculo-fl-FGE; recombinant fl-FGE-R69A/R72A
# How the values were obtained:
# [1] = molecular target: T1, recombinant furin (rFurin) (Homo sapiens, UniProt P09958); assay: In vitro furin cleavage assay; type: biochemical; conditions: 25 μM inhibitor, HT1080 cell lysate
# T1 construct: purchased NEB
# T1 sequence (P09958 108-794): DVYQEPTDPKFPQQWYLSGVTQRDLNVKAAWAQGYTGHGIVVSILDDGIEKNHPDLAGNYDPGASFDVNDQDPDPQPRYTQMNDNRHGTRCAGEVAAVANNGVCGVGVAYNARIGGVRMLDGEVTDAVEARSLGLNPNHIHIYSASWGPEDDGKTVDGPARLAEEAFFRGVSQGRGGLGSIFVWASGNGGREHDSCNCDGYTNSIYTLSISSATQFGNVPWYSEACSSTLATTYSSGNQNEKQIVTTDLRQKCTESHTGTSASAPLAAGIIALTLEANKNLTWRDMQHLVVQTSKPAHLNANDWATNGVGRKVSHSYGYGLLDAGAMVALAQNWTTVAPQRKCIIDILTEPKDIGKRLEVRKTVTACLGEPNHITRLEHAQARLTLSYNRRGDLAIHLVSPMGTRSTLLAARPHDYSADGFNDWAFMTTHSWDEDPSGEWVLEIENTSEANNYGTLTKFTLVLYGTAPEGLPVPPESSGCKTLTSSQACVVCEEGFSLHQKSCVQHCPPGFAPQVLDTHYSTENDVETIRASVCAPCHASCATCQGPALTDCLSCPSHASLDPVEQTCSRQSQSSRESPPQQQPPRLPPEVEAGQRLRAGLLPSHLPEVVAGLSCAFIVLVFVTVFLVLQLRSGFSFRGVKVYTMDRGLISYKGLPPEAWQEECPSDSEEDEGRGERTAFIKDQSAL
# Description: (§1) CHO-FD11 cells stably expressing FGE-His6 or HT1080 cells were grown for 24 h, and cells and medium were harvested. For treatment with furin in vitro cell pellets were resuspended in HEPES pH 7.5 buffer containing 1 mM CaCl2 and 0.5% Triton X-100 and lysed in the absence of protease inhibitors by sonication on ice. Appropriate amounts of cell lysate and medium were incubated for 3 h at 25° C. with 4 units of furin (NEB) with or without 25 μM decanoyl-RVKR-CMK (Alexis biochemicals) as indicated in the figures. For in vivo treatment, HT1080 Tet-On cells were transiently transfected with pBI-FGE-HA and 4 h post-transfection, the medium was replenished with medium containing 20 ng/mL doxycycline and various concentrations of decanoyl-RVKR-CMK or only DMSO as a carrier control. The cells and medium were collected after 16 h of induction/treatment for further analysis. The samples were boiled in Laemmli buffer and analyzed by SDS-PAGE and western blotting with FGE antiserum.
# In mammals, the proproteinconvertase family comprises nine enzymes that differ in their substrate specificity and tissue-specific expression and/or subcellular localization (17). Furin is the best characterized mammalian PC with a ubiquitous tissue distribution and it is the major convertase in the secretory pathway. To analyze the role of furin in the processing of FGE the inventors expressed FGE in cells that are deficient for furin. […] When cell homogenate and medium from CHO-FD11 cells stably expressing FGE-His were treated with commercially available recombinant furin (rFurin), almost half the amount of FGE was processed, as observed for both cells and medium (FIG. 12D). Using this in vitro furin cleavage assay, the inventors also examined whether endogenous intracellular FGE is susceptible to furin processing. Indeed, rFurin readily converted almost 90% of endogenous fl-FGE from untransfected HT1080 cells to the truncated form (FIG. 12E).
# Although FGE is an ER resident protein, it lacks a canonical ER-retention motif. […] In this study, using the in vitro furin cleavage assay, the inventors assessed furin-mediated processing of the FGE-ERp44 covalent complex (FIG. 8). Homogenates, pre-treated with NEM (to prevent post-lysis disulfide shuffling), from HT1080 cells expressing either FGE alone or FGE plus myc-ERp44 together from a bi-directional promoter were incubated with rFurin and analyzed by SDS-PAGE under non-reducing conditions. Upon overexpression, intracellular FGE via its N-terminal cysteines (C50 and C52) forms covalently cross-bridged homodimers (FIG. 15, lane 1 and 2) and, additionally, FGE-ERp44 heterodimers when co-expressed with ERp44 (FIG. 15, lane 4 and 6) as previously observed (13). Removal of the N-terminus by furin cleavage should lead to a disappearance of the homo-/hetero-dimeric FGE forms, which serves as an indicator for accessibility of the furin cleavage motif in FGE.
# [2] = test system: PCs (furin or furin-like convertases); assay: Treatment of HT1080 Tet-On cells expressing FGE with RVKR-CMK inhibitor; type: cell-based, human; conditions: increasing concentrations of the inhibitor, 16 h
# Description: as §1
# In order to verify that the N-terminus of FGE containing the RYSR motif is subject to processing by furin or furin-like convertases, the inventors studied the secretion profile of FGE in cells in the presence of decanoyl-RVKR-ChloroMethylKetone (CMK), an inhibitor for PCs (FIG. 12A). […]
# [3] = molecular target: T2, steroid sulfatase (STS), expressed from pBI-STS in MSDi Tet-On cells (UniProt P08842 22-583, limits assumed); assay: cell-based or functional assay
# T2 sequence (looked up): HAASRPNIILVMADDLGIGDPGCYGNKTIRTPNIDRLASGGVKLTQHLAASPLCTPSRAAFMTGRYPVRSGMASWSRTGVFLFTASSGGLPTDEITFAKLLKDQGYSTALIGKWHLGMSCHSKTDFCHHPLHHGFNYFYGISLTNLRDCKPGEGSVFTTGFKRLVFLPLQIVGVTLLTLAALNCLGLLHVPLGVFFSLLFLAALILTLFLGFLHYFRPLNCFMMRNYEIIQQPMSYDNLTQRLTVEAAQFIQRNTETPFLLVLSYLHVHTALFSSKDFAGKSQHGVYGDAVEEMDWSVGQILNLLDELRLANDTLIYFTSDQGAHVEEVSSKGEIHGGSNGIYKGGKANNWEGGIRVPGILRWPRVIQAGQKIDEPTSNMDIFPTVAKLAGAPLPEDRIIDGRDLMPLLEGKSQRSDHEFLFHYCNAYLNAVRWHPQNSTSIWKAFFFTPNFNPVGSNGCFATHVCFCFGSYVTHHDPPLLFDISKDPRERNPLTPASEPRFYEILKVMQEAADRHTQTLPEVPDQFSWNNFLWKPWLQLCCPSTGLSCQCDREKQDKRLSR
# [4] = molecular target: T3, 23 amino acid substrate peptide Ac-MTDFYVPVSLCTPSRAALLTGRS-NH2 (SEQ ID NO: 46)
# T3 chain: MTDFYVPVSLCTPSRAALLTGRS
# [5] = molecular target: the molecule itself; assay: size exclusion chromatography (Superdex 200), non-reducing SDS-PAGE and western blot with FGE antiserum
# Description: FIG. 16: Separation of the recombinant fl-FGE-R69A/R72A monomer and dimer by size-exclusion chromatography. (A) The pooled elution fractions from Ni-NTA purification (SM) were further purified in a Superdex (SD200 10/300 GL) column using Ettan LC system (GE health care). The eluted material in 0.5 ml of running buffer (20 mM Tris, pH 8.0 containing 200 mM NaCl) were collected and analyzed in SDS-PAGE under reducing conditions followed by coomassie staining (B) Equal volume of elution fractions obtained as shown in ‘(A)’ were resolved in SDS-PAGE under non-reducing conditions followed by western blot and membrane decorated with FGE anti-serum. (SM: starting material; FGE: monomer; FGE2: dimer).
molecule,measurement,setting,value
"decanoyl-RVKR-ChloroMethylKetone (Decanoyl-RVKR-CH2Cl) [RVKR-CMK, reference compound]",inhibition of furin-mediated processing of FGE,[1],completely abrogated
same,amount of the truncated form of FGE in the secretions,[2],decreased by the inhibitor in a concentration dependent manner
B1,relative specific activity of STS after co-expression in immortalized MSD Tet-On cells,[3],~50 fold
B2,"specific activity, FGly generation in the 23-aa substrate peptide (MALDI-ToF MS), 2 mM DTT as reductant",[4],24.1±1.7 mU/mg in presence of the control reductant DTT
same,"specific activity, FGly generation in the 23-aa substrate peptide (MALDI-ToF MS), 5 mM GSH as reductant",[4],15.6±1.3 mU/mg in presence of GSH
same,binding result,[5],binds
